According to the nanobody polyreactivity screen of Harvey et al. (2022):

Assay: yeast display, Sf9 membrane polyspecificity reagent, FACS + sequencing; frameworks hold sequencing errors
Method in brief: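 Polyreactivity labels are assigned by the sorting gate from which each nanobody was recovered. The gates were low and high (top ~1%), set on anti-HA fluorescence for expression and streptavidin fluorescence for reagent binding. Before sorting, galactose-induced (36–48 hours) yeast display cells were stained for 1 hour at 4 °C with 10% biotinylated, detergent-solubilized Sf9 membrane reagent.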

With “QVQLVESGGGLVQAGGSLRLSCAASGRISVVNAMGWYRQAPGKERELVATINRGGSTYADSVKGRFTISRDNAKNTVYLQMNSLKPEDTAVYYCAARTFRISRMDYWGQGTQVTVSS” the “polyreactivity (PSR sort gate)” value was “high polyreactivity”.

In the case of “QVQLVESGGGLVQARGSLRLSCAGSGSTLPSYAMGWYRQAPGKERELVAAISSSGGRTYYADSVKGRFTISRDNAKNTVYLLMNSLKPEDTAVYYCAALSVANYHGTDSGYWGQGTQVTVSS”, the “polyreactivity (PSR sort gate)” value is reported as “high polyreactivity”.

With “QVQLVESGGGLVQAGGSLRLSCAASGSTFYTNAMGWYRQAPGKERELVAVITSSGVRTYYADSVKGRFTISRDNAKKTVYFQMNSLKPEDTAVYYCAAEARVGDHFQILDYWGQGTQVTVSS” the “polyreactivity (PSR sort gate)” value was “high polyreactivity”.

For “QVQLVESGGGLVQAGGSLRLSCAASGRTFWSYAMGWYRQAPGKERELVATINDSDGSTYADSVKGRFTISRDNAKNTVYLQMNSLKPEDTAVYYCNAQTRAGYYFGYGYWGQGTQVTVSS”, the “polyreactivity (PSR sort gate)” value was “low polyreactivity”.

With “QGQLVESGGGLVQAGGSLRLSCAASGITFPYYAMGWYRQAPGKERELVADITSGGSTNYADSVKGRFTISRDNAKNTVYLQMNSLKPDDTAVYYCAADWYVIYDYWGQGTQVTVSS” the “polyreactivity (PSR sort gate)” value was “low polyreactivity”.

In the case of “QDQLVESGGGLDQAGGSLRLSCAASGFTFIRYAMGWYRQAPGKERELVATITRSGGSTYYADSVKGRFTISRDHAKNTVYLQMNSLKPEDTAVYYCAKRGTLGSYYYWGQGTQVTVSS”, the “polyreactivity (PSR sort gate)” value is reported as “high polyreactivity”.

With “LVQLQDSGDGLVQAGGSLRLSCAASGNIFDADIKGWYRQAPGKERELVASIGIGGTTYYADSVKGRFSISRDNEKNTVYLQMNSLKPEDTAVYYCAARYLYYAYSYWGQGTQVTVSS” the “polyreactivity (PSR sort gate)” value was “low polyreactivity”.

For “QVQLVESGGGLVQAGGSLRLSCAASGFTFDLYAMGWSRQAPGKERELVASISSGGITYYADSVKGRFTITRDNANNTVYLQMNSLKPEDTAVYYCARDWRYGSWEGDDYWGQGTQVTVSS”, the “polyreactivity (PSR sort gate)” value was “low polyreactivity”.

With “QVQLVESAGGLVQAGGSVRLSCAASGRIFGSYAMGWYRQAAGKERELVAAINWRGGSTFYADSVKGRFTISRDNAKNTVYLQMNSLKPEDTAVYYSARRGYLQSGDYWGHGTQVTVSS” the “polyreactivity (PSR sort gate)” value was “low polyreactivity”.

With “QVQLVESGGGLVQAGGSLRLSCAASGSTLYHSTMGWYRKAPGKETELVAAITWSGGSTSYADSVKGRFTISRDNAKNTVYLQMNSLKPEDTAVYYCAADDTPDDSDYWGQGTQVTVSS” the “polyreactivity (PSR sort gate)” value was “low polyreactivity”.

With “QVQLVESGGGLVQAGGSLRLSCAASGFIFSRNVMGWYRQAPGKERELVAAISRSGGSTYYADSVKGRFTISRDNAKNTVYLQMNSLKPEDTAVYYCAASRINYVYLLKGDYWGQGTQVTVSS” the “polyreactivity (PSR sort gate)” value was “high polyreactivity”.

In the case of “QVQLVESGGGLVQAGGSLRLSCAASGRTFGYYAMGWYRQAPGQERELVAAISWSDSGTYYADSVKGRFTISRDNAKNTVYLQMNSLKPEDTAVYYCAKDEPYFVFRDTYDYWGQGTQVTVSS”, the “polyreactivity (PSR sort gate)” value is reported as “high polyreactivity”.

In the case of “QVQLVESGGGLVQAGGSLRLSCAASGFTFTYYTMGWYRQAPGKARELVAAISWSGGSTYYADSVKGRLTISRDNANNPVYLQMNSLKPEDTEVYYCNKVGIGYNTKRDYWGQGTQVTVSS”, the “polyreactivity (PSR sort gate)” value is reported as “high polyreactivity”.

With “QVQLVESGGGLVQAGGSLRLSCAASGRIFEVYTMGWYRQAPGKERELVAAIDRSTGSTYYADSVKGRFTISRDNAKNTVYLQMHSLKPEDTAVYYCAARGTFLGTRPLGRFDYWGQGTQVTVSS” the “polyreactivity (PSR sort gate)” value was “low polyreactivity”.

For “QVQLVESGGGLVQAGGSLRLSCAASGSMFITYTMGWYRQAPGKERELVAAITWDGGSTYYADSVKGRFTISRDNAKNTVYLQMNSLKPEDTAVYYCAKDVILVWPYATGRDYWGQGTQVTVSS”, the “polyreactivity (PSR sort gate)” value was “low polyreactivity”.

For “QDKLVESAGGLVQAGGSLRLSCADSGSIFPFNAMALNRQATGKVREMVASITSGGTTYYADSLKGRFTISRDNAKNTVYLQMNSLKPEDTAVYYFAGDWVWRVLNSYGVRYDYWGQGTQVTVSS”, the “polyreactivity (PSR sort gate)” value was “low polyreactivity”.

With “QVQLVESGGGLVQAGGSLRLSCAASGRIFIYNAMGWYRQAPGKEREFVAAISRTGGNTYYADSVKGRFTISRDNAKNTVYLQMNSLKPEDTAVYYCATKRKWTYLSYDYWGQGTQVTVSS” the “polyreactivity (PSR sort gate)” value was “low polyreactivity”.

For “QVQLVESGGGLVQAGGSLRLSCAASGRTFTYYAMGWYRQGPGKESELVAAITSGGRTYYADSVKGRFTISRDNAKNTVYLELNSLKPDDTAVYYCADRRIRDYYRSYDYWGQGTQGTVSS”, the “polyreactivity (PSR sort gate)” value was “high polyreactivity”.

In the case of “QVQLVESGGGLVQPRGSLRLSCAASGGTFKFYAMGWYRQAPGKDRELVAAITSGGSTNYADSVKGRFTISRDNAKNTVYLLMNSLKPEDTALYYCNADFYQRYGVFSSRRYFYWGQGTQVTVSS”, the “polyreactivity (PSR sort gate)” value is reported as “low polyreactivity”.

For “QVQLVESGGGLVQAGGSLRLSCAASGRTFSRYAMGWYRQAPGKERELVASITSRGGSTYYADSVKGRFTISRDNAKNTVYLQMNSLKPEDTAVYYCNVKPTYSTRYWEDYWGQGTQVTVSS”, the “polyreactivity (PSR sort gate)” value was “high polyreactivity”.

In the case of “QVQLVESGGGLVQAGGSLRLSCAASGIIFGWYAMGWYRQAPGKERELVAAISSGGRTNYADSVKGRFTISRDNAKNTVYLQMNSLKPEDTEVYYCAAAYIRGSRRYDYCGQGTQVTVSS”, the “polyreactivity (PSR sort gate)” value is reported as “high polyreactivity”.

With “QVQLVESGAGLVQAGGSLRLSCAASGSTFHYYAMGLYRQAPGKERELVATITWRGGFTYYADSVKGRFTISRDNAKNTVYLQMNSLKPEDTAGYYCTDYYVRRYRDPRLYYWGQGTQVTVSS” the “polyreactivity (PSR sort gate)” value was “high polyreactivity”.

With “QVQLVESGGGLVQAGGSLRLSCAASGITFGDNAMGWYRQAPGKERELVAAITLSDVDTYADSVKGRFTISRDNAKNTVYLQMNSLKPEDTAVYYCAADYYAHQDYRFDYWGQGTQVTVSS” the “polyreactivity (PSR sort gate)” value was “low polyreactivity”.

For “QVQLVESGGGLVQAAGSLRISCAASGLIFGWNAMGWYRQAPGKERELVAAITSGGSTYYADSVKGRFTISRDNAKNTVYLQMNSLKPEDTAVYYCAAVYVLGKTGRVYGKYGYWGQGTQVTVSS”, the “polyreactivity (PSR sort gate)” value was “high polyreactivity”.

In the case of “QVQLVESGGGLVQAGGSLRLSCAASGRIFWYNAMGWYRQAPGKERELVAVISTRGGRTYYADSVKGRFTISRDNAKNTVYLQMNSLKPEDTAVYYCAAEFLNKAVGGVTSIYDSWGQGTQVTVSS”, the “polyreactivity (PSR sort gate)” value is reported as “low polyreactivity”.

In the case of “QVQLVESGGGLVQAGGSLRLSCAASGLIFDYNAMGWYRQAPGKEWELVAAISSGGSTYYADSVKGRFTISRDNANNTVYLQMNSLKPEDTAVYYCAARFSSYVRRYYYWGQGTQVTVSS”, the “polyreactivity (PSR sort gate)” value is reported as “high polyreactivity”.

For “QVQLVESGGGLVQAGGSLRLTSAGSGFTFTIYAMGWYRQAPGKERELVATISGRAGRTYYADSVKGRFTISRDNAKNTVYLQMNSLKPEDTAVYYCNAGQWRYPGLYYYWGQGSQVTVSS”, the “polyreactivity (PSR sort gate)” value was “high polyreactivity”.

In the case of “QVQLVESGGGLVQAGGSLRLICAASGNTFVRYYMGWYRQAPGKEREFVAAITASGGSTFADSVKGRFTISRDNAKNTVYLQMNSLKPEDTAVYYCNAGNSSTGVDRYDYWGQGTQVSVSS”, the “polyreactivity (PSR sort gate)” value is reported as “low polyreactivity”.

With “QVQLVESGGGLVQAGGSLRLSCAASGSIFYINTMGWYRQAPGKEREMVATIRTSGGSTYADSVKGRFTISRDNAKNTVYLQMNSLKPEDTAVYYCAVRRYRSSSYGYYSWGQGTQVTVSS” the “polyreactivity (PSR sort gate)” value was “high polyreactivity”.

For “QVQLVESGGGLVQAGGSLRLSCDASGSTFSPYAMRWYRQAPGKERELVAAINYSSGSTYYADSVKGRFTISRDNAKNTVYLQMNSLKPEDTAVYYCAYGWYAGYPYDYWGQGTQVTVSS”, the “polyreactivity (PSR sort gate)” value was “low polyreactivity”.

With “QVQLVESGGGLVQAGGSLRLSCAASGSIFARYAMGWYRQAPGKERELVAAISGSGASTYYADSVKGRFTISRDNAKNTVFLQMNSLKPEDTAVYYCARPFLRRPTYRFESGYGYWGQGTQVTVSS” the “polyreactivity (PSR sort gate)” value was “high polyreactivity”.

With “QVQLVESGGGLVQAGGCLRLSCDASGITFDYYAMGWYRQAPVKESELVAAITNDGRTYNADSVKGRFTISLDNAKNTVYLQMNSLKPEDTADYYCARLTYYVNGRYDYWGQGTQVTVSS” the “polyreactivity (PSR sort gate)” value was “low polyreactivity”.

With “QVQLVESGGGLVQAGGSLRLSCAASGSIFAYYAMGWYRQAPGKERELVAVISRGGSTYYADSVKGRFTISRDNATNTVYLQMNSLKPEDTAVYYCAADDTRGREEYDYWGQGTQVTVSS” the “polyreactivity (PSR sort gate)” value was “high polyreactivity”.

With “QVQLVESGGGLVQAGGSLRLSCAASGRIFWFYTMGWYRQAPGKERELVAAISTSGGSTYYADSVKGRFTISRDNAKNTVYLQMNSLKPEDTAVYYCAAQNGYYPQHDYWGQGTQVTVSS” the “polyreactivity (PSR sort gate)” value was “high polyreactivity”.

In the case of “QVQLVESGGGLVQAGGSLRLSSAGSGSTLAYNAMGWYRQAPGKERELVAAISRGTSTYYADSVKGRFTISRDNAKNTVYLQMNSLKPEDTEVYYCAADYVIQYREYDSWGQGTQVTVSS”, the “polyreactivity (PSR sort gate)” value is reported as “low polyreactivity”.

For “QVQLVESGGGLVQAGGSLRLSCAASGFIFSYYAMGWYRQAPGKEREWVAAISKTGGNTYYADSVKGRFTISRDNAKKTVYLQMNSLKPEDTAVYYCNALRGDWRDMGYCGQGTQVTVSS”, the “polyreactivity (PSR sort gate)” value was “high polyreactivity”.

For “QVQLVESGGGLFQAGGSLRLSCAASGRTFCPYTMGWYRQAPGKERELVAVISSNDGSTDYADSVKGRFTFSRDNAKNTVYLQMNSLKPEDTAVYYCAAEVYFGYYGGYGYWGQGTQVTVSS”, the “polyreactivity (PSR sort gate)” value was “low polyreactivity”.

In the case of “QVQLVESGGGLVQAGGSLRLSCAASGSTFTHNGMGWYRQAPGKETELVASITWSGGSTYYAVSVKGRFTISRDNAKNTVYLQMNSLKPEDNAVYYCASDAKLYITGFDYWGQGTQVTVSS”, the “polyreactivity (PSR sort gate)” value is reported as “low polyreactivity”.

In the case of “QVQLVESGGGLVQAGGSLRLSCAASGRIFSQYAMGWYRQAPGKERELVAAISRRTGSTYYADSVKGRFTISRDNAKNTVYLQMNSLKPEDTAVYYCAAASKPWYYYWGQGTQVTVSS”, the “polyreactivity (PSR sort gate)” value is reported as “high polyreactivity”.

In the case of “QVQLVESGGGLVQAGGSLRLSCAASGFTFWYYAMGWYRQAPGKERELVADISTRGGSTYYADSVKGRFTISRDNAKNTVYLQMNSLKPEDTAVYYCAAKYARNLAGDDPYDYWGQGTQVTVSS”, the “polyreactivity (PSR sort gate)” value is reported as “high polyreactivity”.

With “QVQLVESGGGLVQAGGSLRLSCAASGRIFVDNTMGWYRQAPGKEREFVAVISTSGGRTSYADSVKGRFTISRDNAKNTVYLQMNSLKPEDTAVYYCNALYGRYGWSKNYYWGQGTQVTVSS” the “polyreactivity (PSR sort gate)” value was “high polyreactivity”.

With “QVQLVESGGGLVQAGGSLRLSCAASGLIFNIYAMGWYRQAPGKERELVAAISKSGGSTYYADSVKGRFTISRDNAKNTVYLQMNSLKPEDTAVYYCAAPYLVRSQRYYYWGQGTQVTVSS” the “polyreactivity (PSR sort gate)” value was “high polyreactivity”.

With “QVQLVESGGGLVQAGGSLRLSCAASGNTFGYNAMGWYRQAPGKERELVASITWSGGSTYYADSVKGRFTISRDNAKNTVYLEMKSLKPEDTAVYYCNADVRYGRDHWGQGTQVTVSS” the “polyreactivity (PSR sort gate)” value was “low polyreactivity”.
